Publication PMC6682002 (ACS Omega, 2019)

B1: recombinant ClpP2 (rClpP2) of Leptospira interrogans, LIC11951 (enzyme, UniProt Q72R01 1-197, looked up)
chain: MPETEKIAEVFEELTGSKISKNFLDHRKIFLWGPVTDESSKDLVGKLLYLEMKDPGKKITFYINSPGGVVTSGMTVFDTIKMISSPVHTVCMGMAASMGSVLLAAGTKGERSIWPNGKVMIHQPSIGGQIVAPATDLKIHAEEILKTKTKLNQILADACGHPISKLEEDTDRDYYMDAEEAIKYGIVDKLATKIDFN
B2: recombinant ClpP1 (rClpP1) of Leptospira interrogans, LIC11417 (enzyme)
chain: not shown
B3: rClpP1S98A, catalytic serine mutant of recombinant ClpP1 of Leptospira interrogans (enzyme)
chain: not shown
B4: rClpP2S97A, catalytic serine mutant of recombinant ClpP2 of Leptospira interrogans (enzyme, UniProt Q72R01 1-197, looked up)
chain: MPETEKIAEVFEELTGSKISKNFLDHRKIFLWGPVTDESSKDLVGKLLYLEMKDPGKKITFYINSPGGVVTSGMTVFDTIKMISSPVHTVCMGMAAAMGSVLLAAGTKGERSIWPNGKVMIHQPSIGGQIVAPATDLKIHAEEILKTKTKLNQILADACGHPISKLEEDTDRDYYMDAEEAIKYGIVDKLATKIDFN

Columns and labels:
native gel or EMSA = molecular target: the molecule itself; test: native gel or EMSA
cross-linking = molecular target: the molecule itself; test: cross-linking
[1] = molecular target: B2; test: ITC
[2] = molecular target: B1; test: ITC
SEC = molecular target: the molecule itself; test: SEC

Binder | stoichiometry N (native gel or EMSA) | stoichiometry N (cross-linking) | Kd [1] | dH [2] | stoichiometry N [2] | stoichiometry N (SEC) | binding result (native gel or EMSA)
B1 | 14 | 7 | 2020 ± 100 nM | – | – | – | –
B2 | 21 | 7 | – | -30200 ± 2640 cal^–1 mol^–1 | 0.945 ± 0.05 | 14 | –
B3 | – | – | – | – | – | – | binds
B4 | – | – | – | – | – | – | binds
